“Also recorded” adds a separate entry of the source. Ends that are not written are not given here.
Experiments:
hPTH-1 receptors [1] = target: T1, hPTH-1 receptors (Homo sapiens, UniProt Q03431); assay: cAMP accumulation in HKRK B28 cells; format: cell-based; design: expressed in transfected cells; conditions: average level
T1 sequence (Q03431 27-593): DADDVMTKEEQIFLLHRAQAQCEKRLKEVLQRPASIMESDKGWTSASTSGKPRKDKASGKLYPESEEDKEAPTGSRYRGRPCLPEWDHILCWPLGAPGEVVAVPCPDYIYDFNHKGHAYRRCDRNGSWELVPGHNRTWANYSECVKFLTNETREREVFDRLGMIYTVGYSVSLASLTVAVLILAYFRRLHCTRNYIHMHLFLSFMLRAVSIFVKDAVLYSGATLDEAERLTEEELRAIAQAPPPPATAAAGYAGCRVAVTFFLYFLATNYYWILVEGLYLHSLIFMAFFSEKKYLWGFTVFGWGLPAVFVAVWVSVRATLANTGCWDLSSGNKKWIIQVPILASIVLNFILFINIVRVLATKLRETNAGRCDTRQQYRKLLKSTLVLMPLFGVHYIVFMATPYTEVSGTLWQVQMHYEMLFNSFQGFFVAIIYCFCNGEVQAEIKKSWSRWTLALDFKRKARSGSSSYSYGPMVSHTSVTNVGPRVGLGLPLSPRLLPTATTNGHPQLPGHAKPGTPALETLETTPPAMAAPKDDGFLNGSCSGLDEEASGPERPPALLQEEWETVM
Description: (§1) Intracellular cAMP accumulation, PLC activation and PTHR binding affinity were measured as previously reported (Bringhurst, F. R., et al., Endocrinology 132(5):2090-2098 (1993); Guo, J., et al., Endocrinology 136(9):3884-3891 (1995)). Intracellular cAMP accumulation was measured in extracts of cells that were exposed to human PTH peptides in the presence of isobutylmethyxanthine (IBMX, 1 mM) at 37° C. for 15 min. After terminating the reactions by aspiration and freezing in liquid nitrogen, cell monolayers were extracted with 50 mM HCl and cAMP was measured using a radioimmunoassay kit (Dupont-New England Nuclear, Boston, Mass.).

hPTH-1 receptors [2] = target: T1, hPTH-1 receptors; assay: phospholipase C (PLC) activity in HKRK-B7 cells; format: cell-based; design: expressed in transfected cells; conditions: about 1 million hPTH-1 receptors per cell, 1000 nM (FIG. 4)
Text: (§2) The following cell lines were used in these studies. HKRK C53 subclones of LLC-PKI porcine renal epithelial cells which stably express human PTH-1 receptors (150,000 receptors/cell). SaOS-2 cells are transformed human osteosarcoma cells which express relatively few (10,000-20,000 per cell) human PTH-1 receptors. HPR2-7 cells are subclones of LLC-PK1 which express approximately 250,000 recombinant human PTH-2 receptors per cell. HKRK-B7 cells are subclones of LLC-PK which stably express approximately 1 million hPTH-1 receptors per cell. HPR2-22 cells are subclones of LLC-PK1 which express 1.5 million recombinant hPTH-2 receptors per cell. The HPR2-27 and HPR2-22 cell lines were created in the same fashion as the HKRK cells but employing instead type 2 PTH receptor cDNA using the transfection technique of (Bringhurst, F. R., et al., Endocrinology 132(5):2090-2098 (1993); Guo, J., et al., Endocrinology 136(9):3884-3891 (1995)).
(§3) PLC was activated by PTH agonists in the presence of 30 mM LiCl at 37° C. for 30 min after 16 hr of labeling with [^3H]myo-inositol (3uCi/ml) in serum-free medium containing 0.1% bovine serum albumin. The reactions were stopped by rapid aspiration and addition of cold 5% TCA. Water-soluble radiolabeled inositol trisphosphate (IP3) was isolated after ether extraction by ion-exchange chromatography (Guo, J., et al., Endocrinology 136(9):3884-3891 (1995)). In experiments involving HEK 293 cells, cells previously transfected with human PTHR cDNA (in the pcDNA1 expression vector HKRK) using Lipofectamine (Gibco BRL) were labeled with [^3H]myo-inositol and assayed as described above, except that total water-soluble [^3H]inositol polyphosphates were collected as a single fraction from the ion-exchange columns.

hPTH-2 receptors [3] = target: T2, hPTH-2 receptors (Homo sapiens, UniProt P49190); assay: cAMP measurements in clonal LLC-PK1 cells (HPR2-7); format: cell-based; conditions: HPR2-7 cells; average level
T2 construct: expressed in transfected cells
Text: as §2, with “HKRK-B7 cells are subclones of LLC-PK which stably express approximately 1 million hPTH-1 receptors per cell. HPR2-22 cells are subclones of LLC-PK1 which express 1.5 million recombinant hPTH-2 receptors per cell.” left out
as §1

hPTH-2 receptors [4] = target: T2, hPTH-2 receptors; assay: radioligand competition binding to HPR2-7 cells; conditions: average level
Description: (§4) Radioligand competition binding assays were performed at 2-8° C. for 6 hr using ^125I-[Nle^8,21]rat PTH-(1-34) (100,000 cpm/well) in the presence or absence of non-radioactive hPTH-(1-34) analogs. Cell layers were washed three times before solubilization for determination of cell-associated radioactivity.

hPTH-1 receptors [5] = target: T1, hPTH-1 receptors; assay: radioligand binding to HKRK C53 cells; design: expressed in transfected cells; conditions: average level
Text: as §2, §4

hPTH-2 receptors [6] = target: T2, hPTH-2 receptors; assay: cAMP accumulation in HPR2-22 cells; format: cell-based; conditions: average level
Text: as §2, with “The HPR2-27 and HPR2-22 cell lines were created in the same fashion as the HKRK cells but employing instead type 2 PTH receptor cDNA using the transfection technique of (Bringhurst, F. R., et al., Endocrinology 132(5):2090-2098 (1993); Guo, J., et al., Endocrinology 136(9):3884-3891 (1995)).” left out
as §1

hPTH-1 receptors [7] = target: T1, hPTH-1 receptors; assay: IP3 formation in HKRK C53 cells; format: cell-based; design: expressed in transfected cells; conditions: average level
Text: as §2
PLC was activated by PTH agonists in the presence of 30 mM LiCl at 37° C. for 30 min after 16 hr of labeling with [^3H]myo-inositol (3uCi/ml) in serum-free medium containing 0.1% bovine serum albumin. The reactions were stopped by rapid aspiration and addition of cold 5% TCA. Water-soluble radiolabeled inositol trisphosphate (IP3) was isolated after ether extraction by ion-exchange chromatography (Guo, J., et al., Endocrinology 136(9):3884-3891 (1995)). […]

hPTH-1 receptors [8] = target: T1, hPTH-1 receptors; assay: cAMP accumulation (adenylyl cyclase activation) in HKRK C53 cells; format: cell-based; design: expressed in transfected cells; conditions: HKRK C53 cells
Text: as §2, with “HKRK-B7 cells are subclones of LLC-PK which stably express approximately 1 million hPTH-1 receptors per cell. HPR2-22 cells are subclones of LLC-PK1 which express 1.5 million recombinant hPTH-2 receptors per cell.” left out
as §1

hPTH-1 receptors [9] = target: T1, hPTH-1 receptors; assay: radioligand competition binding to HKRK B28 cells; design: expressed in transfected cells
Description: as §4

hPTH-1 receptors [10] = target: T1, hPTH-1 receptors; assay: cAMP measurements in SaOS-2 cells; format: cell-based; design: expressed in transfected cells; conditions: SaOS-2 cells, 10,000-20,000 human PTH-1 receptors per cell; up to 1 uM (FIG. 2)
Text: as §2, §1

hPTH-1 receptors [11] = target: T1, hPTH-1 receptors; assay: PLC activation in HEK-293 cells transiently transfected with human PTHR cDNA; format: cell-based; design: expressed in transfected cells; host or cells: HEK-293 human embryonic kidney cells, transient transfection with Lipofectamine; conditions: HEK-293 cells transiently transfected with human PTHR cDNA (data not shown)
Description: as §3

hPTH-1 receptors [12] = target: T1, hPTH-1 receptors; assay: AC activation in HKRK B7 cells; format: cell-based; design: expressed in transfected cells; conditions: HKRK B7 cells (large number of human PTH-1 receptors)
Text: as §2, §1

hPTH-2 receptors [13] = target: T2, hPTH-2 receptors; assay: phospholipase C activation in HPR2-22 cells; format: cell-based; conditions: 1.5 million hPTH-2 receptors per cell, 1,000 nM (FIG. 5)
Text: as §2, §3

rat PTHRs = target: T3, rat PTHRs (Rattus norvegicus, UniProt P25961); assay: PLC activation in COS-7 cells expressing rat PTHRs; format: cell-based; conditions: up to 1000 nM
T3 construct: expressed in transfected cells; host or cells: COS-7 cells
T3 sequence (P25961 27-591): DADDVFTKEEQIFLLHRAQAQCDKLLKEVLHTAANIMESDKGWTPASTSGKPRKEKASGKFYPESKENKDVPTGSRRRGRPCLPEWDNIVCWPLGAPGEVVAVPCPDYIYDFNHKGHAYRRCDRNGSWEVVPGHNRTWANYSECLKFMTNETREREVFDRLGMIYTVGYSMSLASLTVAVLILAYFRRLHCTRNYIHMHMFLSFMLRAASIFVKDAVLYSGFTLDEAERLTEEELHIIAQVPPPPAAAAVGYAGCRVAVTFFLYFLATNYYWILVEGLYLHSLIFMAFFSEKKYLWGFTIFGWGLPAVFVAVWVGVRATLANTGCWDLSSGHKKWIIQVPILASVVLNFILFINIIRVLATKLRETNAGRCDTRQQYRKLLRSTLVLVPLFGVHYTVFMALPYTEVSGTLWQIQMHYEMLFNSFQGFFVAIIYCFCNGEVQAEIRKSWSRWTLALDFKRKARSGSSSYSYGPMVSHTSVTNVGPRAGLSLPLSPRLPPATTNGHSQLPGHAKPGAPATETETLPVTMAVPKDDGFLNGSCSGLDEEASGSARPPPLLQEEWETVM
Description: (§5) All cells were maintained under 5% CO2 in air in Dulbecco's modified […] containing 7% fetal bovine serum (FBS) and 1% penicillin/streptomycin (GIBCO-BRL, Grand Island, N.Y.). Cells were seeded into 24-well plates two days before assay at a suitable cell density (approximately 2-2.5×10^5 cells/well). DNA transfections in COS/HEK cells were performed 24 hr after plating and inositol radiolabel was added 24 hr thereafter (see below). Cell transfections were performed as previously described (Gardella, T. J., et al., Endocrinology 132(5):2024-2030 (1993)).
as §3

human PTHRs = target: T4, human PTHRs (Homo sapiens, UniProt Q03431); assay: PLC activation in COS-7 cells expressing human PTHRs; format: cell-based; conditions: up to 1000 nM
T4 sequence (Q03431 27-593): T1 sequence (Q03431 27-593)
Description: as §5, §3

T2 sequence (P49190 25-550): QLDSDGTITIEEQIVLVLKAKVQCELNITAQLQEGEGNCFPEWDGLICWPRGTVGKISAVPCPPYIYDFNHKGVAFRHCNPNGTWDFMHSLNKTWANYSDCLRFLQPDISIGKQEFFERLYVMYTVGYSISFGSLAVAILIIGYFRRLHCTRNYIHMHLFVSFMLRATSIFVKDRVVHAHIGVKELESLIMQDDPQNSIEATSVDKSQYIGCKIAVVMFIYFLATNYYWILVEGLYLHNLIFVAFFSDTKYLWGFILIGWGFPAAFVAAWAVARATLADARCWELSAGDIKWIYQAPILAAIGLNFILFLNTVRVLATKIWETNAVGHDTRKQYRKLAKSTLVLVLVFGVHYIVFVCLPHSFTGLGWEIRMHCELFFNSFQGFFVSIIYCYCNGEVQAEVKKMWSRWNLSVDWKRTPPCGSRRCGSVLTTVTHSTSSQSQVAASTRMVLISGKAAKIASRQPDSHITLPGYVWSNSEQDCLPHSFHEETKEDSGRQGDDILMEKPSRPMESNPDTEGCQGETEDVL

Compound	cAMP accumulation in the presence of maximal concentrations of peptide (hPTH-1 receptors [1])	activation of PLC (hPTH-1 receptors [2])	cAMP accumulation in the presence of maximal concentrations of peptide (hPTH-2 receptors [3])	binding in the presence of maximal concentrations of peptide (hPTH-2 receptors [4])	binding in the presence of maximal concentrations of peptide (hPTH-1 receptors [5])	cAMP accumulation in the presence of maximal concentrations of peptide (hPTH-2 receptors [6])	IP3 formation in the presence of maximal concentrations of peptide (hPTH-1 receptors [7])	cAMP accumulation in the presence of maximal concentrations of peptide (hPTH-1 receptors [8]; average level)	binding in the presence of maximal concentrations of peptide (hPTH-1 receptors [9]; HKRK B28 cells, average level)	cyclase (cAMP) activity compared with control hPTH(1-34) (hPTH-1 receptors [10])	activation of PLC (hPTH-1 receptors [2]; listed as Human PTH(2-34))	activation of PLC (hPTH-1 receptors [11])	activation of AC compared with hPTH-(1-34) (hPTH-1 receptors [12])	activation of phospholipase C (hPTH-2 receptors [13])	cyclic AMP accumulation, efficacy compared with native hPTH(1-34)NH2 (hPTH-1 receptors [8]; about 150,000 hPTH-1 receptors per cell, 10^-9M and 10^-7M peptide (FIG. 1))	competitive displacement of 125I-[Nle8,21]rPTH(1-34) radioligand binding (hPTH-1 receptors [9]; HKRK B28 cells, 280,000 human PTH-1 receptors/cell (FIG. 6))	activation of PLC (rat PTHRs)	activation of PLC (human PTHRs)
CC[C@H](C)[C@H](NC(=O)[C@H](CCC(=O)O)NC(=O)[C@H](CO)NC(=O)[C@@H](NC(=O)[C@@H](N)CO)C(C)C)C(=O)N[C@@H](CCC(N)=O)C(=O)N[C@@H](CC(C)C)C(=O)N[C@@H](CCSC)C(=O)N[C@@H](Cc1c[nH]cn1)C(=O)N[C@@H](CC(N)=O)C(=O)N[C@@H](CC(C)C)C(=O)NCC(=O)N[C@@H](CCCCN)C(=O)N[C@@H](Cc1c[nH]cn1)C(=O)N[C@@H](CC(C)C)C(=O)N[C@@H](CC(N)=O)C(=O)N[C@@H](CO)C(=O)N[C@@H](CCSC)C(=O)N[C@@H](CCC(=O)O)C(=O)N[C@@H](CCCNC(=N)N)C(=O)N[C@H](C(=O)N[C@@H](CCC(=O)O)C(=O)N[C@@H](Cc1c[nH]c2ccccc12)C(=O)N[C@@H](CC(C)C)C(=O)N[C@@H](CCCNC(=N)N)C(=O)N[C@@H](CCCCN)C(=O)N[C@@H](CCCCN)C(=O)N[C@@H](CC(C)C)C(=O)N[C@@H](CCC(N)=O)C(=O)N[C@@H](CC(=O)O)C(=O)N[C@H](C(=O)N[C@@H](Cc1c[nH]cn1)C(=O)N[C@@H](CC(N)=O)C(=O)N[C@@H](Cc1ccccc1)C(N)=O)C(C)C)C(C)C [hPTH(1-34)NH2]	337±55 pmoles/well/15 min	fill agonists	133±14 pmoles/well/15 min	4541±386 cpm/well	956±135 cpm/well	286±8 pmoles/well/15 min	1908±251 cpm/well	207±37 pmoles/well/15 min	16,137±919 cpm/well									
hPTH(2-34): N-truncated human PTH peptide, residues 2-34 (VSEIQLMHNLGKHLNSMERVEWLRKKLQDVHNF)		did not elicit PLC activity								very weak agonists	inactive	inability	comparable in magnitude and sensitivity to that of hPTH-(1-34); also recorded: approximately equipotent	only a partial agonist	similarly reduced activity	binds as well		
hPTH-(3-34): N-truncated human PTH peptide, residues 3-34 (SEIQLMHNLGKHLNSMERVEWLRKKLQDVHNF-NH2; UniProt P01270 34-65, looked up, fragment)		did not activate PLC															did not activate PLC	did not activate PLC
